The results in this text go back to publication PMC10512533, “A strategy to enhance and modify fatty acid synthesis in Corynebacterium glutamicum and Escherichia coli: overexpression of acyl-CoA thioesterases” (Microbial Cell Factories, 2023).

One may read the Km as the substrate concentration at which the rate is half of its maximum.

Common to all, as to assay: thioesterase assay, Lineweaver-Burk plot
For one data set, the target named is T1, TesA (Corynebacterium glutamicum, UniProt Q8NMW3).
T1 construct: gene Cgl2451; full length in pET-28a(+), His-tag (Ni-NTA), E. coli BL21(DE3); forward primer encodes MAANN start; TE1 family
T1 sequence (Q8NMW3 1-155): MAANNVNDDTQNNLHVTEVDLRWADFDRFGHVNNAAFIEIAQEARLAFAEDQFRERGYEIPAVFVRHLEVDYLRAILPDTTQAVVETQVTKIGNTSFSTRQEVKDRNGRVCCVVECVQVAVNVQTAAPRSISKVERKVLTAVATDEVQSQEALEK
It is filed as biochemical. To be noted: optimal substrate; assay conditions of the kinetics not stated (optimum 30 °C, pH 8.0). An excerpt:
thioesterase assay, Lineweaver-Burk plot on TesA | of TesA estimated through fitting to the Michaelis–Menten equation

Substrate in data set [1]: CCCCCCCC(=O)SCCNC(=O)CCNC(=O)[C@H](O)C(C)(C)COP(=O)(O)OP(=O)(O)OC[C@H]1O[C@@H](n2cnc3c(N)ncnc32)[C@H](O)[C@@H]1OP(=O)(O)O
Format: biochemical, Corynebacterium glutamicum. To be noted: optimal substrate, assay conditions of the kinetics not stated (optimum 30 °C, pH 8.0), authors' other TesB properties (Fig. 5) come from their previous studies.

Substrate in data set [2]: CC(=O)SCCNC(=O)CCNC(=O)[C@H](O)C(C)(C)COP(=O)(O)OP(=O)(O)OC[C@H]1O[C@@H](n2cnc3c(N)ncnc32)[C@H](O)[C@@H]1OP(=O)(O)O
Format: biochemical, Corynebacterium glutamicum. To be noted: optimal substrate, assay conditions of the kinetics not stated (optimum 30 °C, pH 9.0).

Turning to `CCCCCCCCCCCC(=O)SCCNC(=O)CCNC(=O)[C@H](O)C(C)(C)COP(=O)(O)OP(=O)(O)OC[C@H]1O[C@@H](n2cnc3c(N)ncnc32)[C@H](O)[C@@H]1OP(=O)(O)O` [C12, lauroyl-CoA], the Km on TesA is 1380 µM.

B1: TesB (Corynebacterium glutamicum ATCC 13032) (protein)
chain: MKTIEDILTLEEIDRDIYRGPVIESYLARTFGGQVAAQALVAATHTVDKAFTVHSLHGYFIAPGDPTAPAIYLVDRVRDGKSYVTRSVRGIQDGEVIFSMQASFHRGDEGIEHMDKMRKVPAPDEIKGTVERMPISSRRVLDEWAEWDIRVIPQDQLELSDFTATEQAVWIRCTADLPDNPTFHQCSLTYLSDMTLLHSALVPHPGEKMQMASLDHAVWFLRPFRVDEWLLYDQRSPSASSGRALTHGRLFNQQGDLVAIVNQEGMTRTLHEGAQSIPMRKD
notes: full length in pET-28a(+), His-tag (Ni-NTA), E. coli BL21(DE3); forward primer encodes MKTIE start; TE4 family
As to B1, the Km in data set [1] amounted to 5450 µM.

B2: TE9 (Corynebacterium glutamicum ATCC 13032) (protein)
chain: MFLTLSGADMSALIKGSGPHHVVVLNGWFGHAAGWGAFADYLDLGNYTWHFWDYRGYGNRKDDAGEFTLEEISADIVAYIDSIEAEKVSILGHSMGGVFMQKVLADSATPIASLVGISAVAAAGTPFDEDSRKLFTSAGHNPDSRRAIIDFTSGSRQPAAWLDDLTDSTVQNSTPEAVEKYFFAWADCNFAADLGTQDLPVYILTGDLDPAVTKTAVESAFGPIYQNLTVEELHDVGHYAIFEHPLGLAARVLRFLDAV
notes: full length in pET-28a(+), His-tag (Ni-NTA), E. coli BL21(DE3); forward primer encodes MFLTL start
For the molecule B2, in data set [2], the Michaelis constant (Km) is 1810 µM.
